Laboratory results: patent US20070116702A1, “Survival promoting NCAM binding and MCAM ligand binding compounds” (priority 2001, published 2007)

What was measured:
NCAM Ig1 domain = molecular target: T1, NCAM Ig1 domain (Rattus norvegicus, UniProt P13596); assay: Real-time biomolecular interaction analysis (BIAlite surface plasmon resonance), Ig1 applied to immobilised dendrimer peptides; type: binding; conditions: dendrimer peptides immobilised on sensor chip CM5, 25° C., HBS; two independent experiments
T1 construct: The Ig1 domain of NCAM was produced as a recombinant protein in Pichia pastoris; made in house; host or cells: Pichia pastoris strain His 4 GS-115 (pHIL-S1 plasmid)
T1 sequence (P13596 20-111 limits assumed): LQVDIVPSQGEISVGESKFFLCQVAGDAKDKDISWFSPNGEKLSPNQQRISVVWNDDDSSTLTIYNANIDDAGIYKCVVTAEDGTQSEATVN
Text: The Ig1 domain of NCAM was produced as a recombinant protein in Pichia pastoris. The cDNA fragment of rat NCAM was synthesised by PCR, and amplified cDNA was subcloned into an Xho I/Bam HI site of the pHIL-S1 plasmid (Invitrogen Corporation, San Diego, USA). An E. coli strain Top 10 F′ (Invitrogen Corporation, San Diego, USA) was used for transformation. The recombinant plasmid was linearised with Nsi I and used for transformation of Pichia pastoris strain His 4 GS-115 (Invitrogen Corporation, San Diego, USA). Transformation and selection was performed according to a Pichia Expression Kit manual supplied by the manufacturer. The recombinant protein was designated as Ig1 PP (Ig-like domain 1 produced in P. pastoris) The authenticity of Ig1 PP was secured by amino acid sequencing and MALDI-MS confirming the expected molecular weight of 11 kD. Cells were grown essentially according to the Pichia Expression Kit manual. After induction supernatant from growing cells was filtered through a […] filter, concentrated by ultrafiltration and purified by gel filtration using a Sephadex G-50 column (Pharmacia Biotech AB, Sweden) (Thomsen et al., 1996).
Real-time biomolecular interaction analysis was performed using a BIAlite instrument (Pharmacia Biosensor AB, Sweden). All experiments were performed at 25° C. using Hepes buffered saline (HBS: 10 mM Hepes pH 7.4, 150 mM NaCl, 3.4 mM EDTA, 0.005% v/v Surfactant P20 (Pharmacia Biosensor, Sweden) as running buffer. The flow rate was […]. Dendrimer peptides C3d, D3d and D4d (four peptide-monomers coupled to a backbone consisting of three lysines) were immobilised on a sensor chip CM5 (Pharmacia Biosensor AB, Sweden) using the following procedure: the chip was activated by […] 0.05 M N-hydroxysuccinimide, 0.2 M N-ethyl-N′-(dimethylaminopropyl)carbodiimide; peptides were immobilised using […] peptide solution in HBS at a concentration of 60 μg/ml; finally the chip was blocked by 35 μl 1 M ethanolamine hydrochloride pH 8.5. Binding of Ig1 to dendrimer peptides: […] of Ig1 or Ig1I at the indicated concentrations were applied. […]

cells presenting NCAM = conditions: by activating a signalling pathway identical to that activated by homophilic NCAM binding; cited from earlier work
Hippocampal cells = assay: Aggregate cell cultures of hippocampal cells (aggregates counted after 24 h); type: cell-based, rat; conditions: ligand present during the aggregation of cells; quantified 24 h after seeding
Protocol: A variety of suitable fragments and variants of NCAM has been discussed above. To be able to identify candidate ligands capable of stimulating NCAM function, where the NCAM function means the function of the NCAM molecule, the inventors have established a simple cell culture system (aggregate cell cultures) that permits a quantitative evaluation of the effect of various ligands. Hippocampal cells are provided from rat embryos. The cells are grown in a defined medium and dissociated cells are seeded in microtiter plates. After 24 h, the, amount of aggregates are counted. Compounds to be tested are added to the cell suspension immediately before seeding of the cells in micro-wells. When NCAM Ig1 binding ligands are present during the aggregation of cells, smaller, but more numerous cell aggregates are seen when quantified 24 h after seeding of the cells. The inhibiting effect of the ligands results in a blockage of the formation of large aggregates from many small aggregates as the adhesion, properties of NCAM are blocked. Thus, small but more numerous cell aggregates are seen in the presence of active ligands.

[1] = system: cells presenting NCAM or NCAM ligands; assay: Prevention of cell death (survival) of cells presenting NCAM or NCAM ligands; type: cell-based; conditions: general statement; data only in figures
Protocol: PC12 cells were differentiated by plating them in 96-well tissue culture plates in defined medium (DMEM) supplemented with NGF (50-100 ng/ml) and were normally used after 6-8 days of NGF treatment. NGF withdrawal was performed as follows: the medium was removed, and the cells were quickly rinsed twice with pre-warmed medium, and then re-fed with DMEM supplemented with C3d. After 2 days of incubation cells were assayed for cell survival by measuring reduction of a novel tetrazolium compound, MTS (Promega, USA), which is bioreduced by cells into a formazan that is soluble in tissue culture medium. The absorbance of the formazan at 490 nm was measured directly from 96 well assay plates without additional processing. The conversion of MTS into the aqueous soluble formazan was accomplished by dehydrogenase enzymes found in metabolically active cells. The quantity of formazan product as measured by the amount of 490 nm absorbance was directly proportional to the number of living cells in culture (Yao and Cooper, 1995; CellTiter 96 Aqueous non-radioactive cell proliferation assay, Promega, 1996; Eilers et al., 1998).
PC12 cells were plated in 96-well tissue culture plates in the absence of growth factors (serum starvation) for 6 days in DMEM supplemented with C3d and assayed for cell survival by reduction of MTS, as described above (Gollapudi and Oblinger, 1999; Williams and Doherty, 1999). […]

| Substance | binding to the NCAM Ig1 domain (NCAM Ig1 domain) | stimulation of outgrowth (cells presenting NCAM) | inhibition of aggregation of hippocampal cells (Hippocampal cells) | preventing cell death [1] |
| --- | --- | --- | --- | --- |
| D3d: Dendrimer of D3: four peptide-monomers coupled to a backbone consisting of three lysines (AKKERQRKDTQ) | bind to the NCAM Ig1 domain |  |  |  |
| C3d: Dendrimer of C3: four peptide-monomers coupled to a backbone consisting of three lysines (ASKKPKRNIKA) | bind to the NCAM Ig1 domain |  |  |  |
| D4d: Dendrimer of D4: four peptide-monomers coupled to a backbone consisting of three lysines (ARALNWGAKPK) | bind to the NCAM Ig1 domain |  |  |  |
| ASKKPKRNIKA (listed as Homo sapiens) [C3] |  | stimulates outgrowth | inhibited aggregation | capable of preventing cell death |
